The text below walks through data of publication PMC10834949 (2024).

The target in this assay is Aβ42 fibrils Aβ42 (Homo sapiens, UniProt P05067). Put plainly: SPR. In general terms: In SPR one partner is held on a chip, and binding of the other changes the refractive index at the surface.
Aβ42 fibrils Aβ42, sequence (P05067 672-713): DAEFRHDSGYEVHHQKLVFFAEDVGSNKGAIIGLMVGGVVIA

B1: BRICHOS (proSP-C) BRICHOS (protein)
chain: TATFSIGSTGLVVYDYQQLLIAYKPAPGTCCYIMKIAPESIPSLEALTRKVHNFQMECSLQAKPAVPTSKLGQAEGRDAGSAPSGGDPAFLGMAVSTLCGEVPLYYI
For the molecule B1, the Kd was found to be 12.9 nM. This lies in the double-digit nanomolar range.

One may read the Kd as the free concentration of one partner at which half of the binding sites on the other are occupied at equilibrium, for simple one-to-one binding.
